Drawing on US20240116985A1 (published 2024), this text covers EC50 and IC50 for 15 molecules.

Starred links: 1 amine or outer side, 2 acyl side, 3 side chain; linkers in the order of their positions; H or OH if unused. Positions of bridges follow the written chain, without caps; N, C: chain ends. Non-standard residues stand in square brackets, D forms with d. Primed or numbered codes have the meaning given here. SeN″ = (S)-5-(((allyloxy)carbonyl)(methyl)amino)-2-amino-2-methylpentanoic acid (stapling residue), C=CCOC(=O)N(C)CCC[C@](C)(N[*:1])C(=O)[*:2]; B5(16) = 2-amino-2-(pent-4-en-1-yl)hept-6-enoic acid = 2,2-bis(4-pentenyl)glycine (stitching residue), C=CCCCC(CCCC=C)(N[*:1])C(=O)[*:2]; B5(23) = 2-amino-2-(pent-4-en-1-yl)hept-6-enoic acid (2,2-bis(4-pentenyl)glycine), stitching residue, C=CCCCC(CCCC=C)(N[*:1])C(=O)[*:2]; B5(9) = 2-amino-2-(pent-4-en-1-yl)hept-6-enoic acid (2,2-bis(4-pentenyl)glycine), C=CCCCC(CCCC=C)(N[*:1])C(=O)[*:2]; B5″ = 2,2-bis(4-pentenyl)glycine, stitching residue, C=CCCCC(CCCC=C)(N[*:1])C(=O)[*:2]; 23FF = 2,3-difluoro-L-phenylalanine, O=C([C@H](Cc1cccc(F)c1F)N[*:1])[*:2]; Phe(3,5-F2) = N[C@@H](Cc1cc(F)cc(F)c1)C(=O)O; Phe(3-F) = N[C@@H](Cc1cccc(F)c1)C(=O)O; His(τ-Me) = Cn1cnc(C[C@H](N)C(=O)O)c1; Bta = N[C@@H](Cc1csc2ccccc12)C(=O)O; αAllylPro = C=CC[C@@]1(C(=O)O)CCCN1; S8 = C=CCCCCCC[C@](C)(N)C(=O)O; NMeS = CN[C@@H](CO)C(=O)O

The labels stand for the following.
B1: I-760 (peptide)
peptide: Ac-[αAllylPro]DL[B5″]DEAAFN[S8]F[Bta][NMeS]-NH2
modifications: staple 1-4, 4-11
notes: Stapled peptide composition
B2: I-388 (peptide)
peptide: XDAXDEAAFVXFXQ
modifications: not fully specified; N-terminal Ac; PL3 at 1, B5 at 4, S8 at 11 (stapled 1-4 and 4-11 by olefin metathesis); 23FF at 12; BztA at 13; C-terminal NH2
notes: Stapled peptide; also called Ac-PL3-Asp-Ala-B5-Asp-Glu-Ala-Ala-Phe-Val-S8-23FF-BztA-Gln-NH2
B3: I-406 (peptide)
peptide: Ac-[αAllylPro]DA[B5(23)]DEAAFQ[S8]F[Bta]Q-NH2
modifications: staple 1-4, 4-11
notes: Stapled peptide; also called Ac-PL3-Asp-Ala-B5-Asp-Glu-Ala-Ala-Phe-Gln-S8-Phe-BztA-Gln-NH2
B4: I-407 (peptide)
peptide: Ac-[αAllylPro]DI[B5(23)]DEAAFQ[S8]F[Bta]Q-NH2
modifications: staple 1-4, 4-11
notes: Stapled peptide; also called Ac-PL3-Asp-Ile-B5-Asp-Glu-Ala-Ala-Phe-Gln-S8-Phe-BztA-Gln-NH2
B5: I-403 (peptide)
peptide: Ac-[αAllylPro]DA[B5(16)]D[His(τ-Me)]AAFV[S8][Phe(3-F)][Bta]Q-NH2
modifications: staple 1-4, 4-11; not fully specified
notes: Stapled peptide; also called Ac-PL3-Asp-Ala-B5-Asp-1meH-Ala-Ala-Phe-Val-S8-3FF-BztA-Gln-NH2
B6: I-400 (peptide)
peptide: Ac-[αAllylPro]DA[B5(16)]DHAAFQ[SeN″][Phe(3-F)][Bta]Q-NH2
modifications: staple 1-4, 4-11; not fully specified; printed as Ac-PL3-Asp-Ala-B5-Asp-His-Ala-Ala-Phe-Gln-SeN-3FF-BztA-Gln-NH2
notes: Stapled peptide; also called Ac-PL3-Asp-Ala-B5-Asp-His-Ala-Ala-Phe-Gln-SeN-3FF-BztA-Gln-NH2
B7: I-398 (peptide)
peptide: Ac-[αAllylPro]DA[B5(16)]DHAAFV[SeN″][Phe(3-F)][Bta]Q-NH2
modifications: staple 1-4, 4-11; not fully specified; printed as Ac-PL3-Asp-Ala-B5-Asp-His-Ala-Ala-Phe-Val-SeN-3FF-BztA-Gln-NH2
notes: Stapled peptide; also called Ac-PL3-Asp-Ala-B5-Asp-His-Ala-Ala-Phe-Val-SeN-3FF-BztA-Gln-NH2
B8: I-399 (peptide)
peptide: XDAXDHAAFQXFXQ
modifications: not fully specified; N-terminal Ac; PL3 at 1, B5 at 4, S8 at 11 (stapled 1-4 and 4-11 by olefin metathesis); 3FF at 12; BztA at 13; C-terminal NH2
notes: Stapled peptide; also called Ac-PL3-Asp-Ala-B5-Asp-His-Ala-Ala-Phe-Gln-S8-3FF-BztA-Gln-NH2
B9: I-397 (peptide)
peptide: XDAXDHAAFVXFXQ
modifications: not fully specified; N-terminal Ac; PL3 at 1, B5 at 4, S8 at 11 (stapled 1-4 and 4-11 by olefin metathesis); 3FF at 12; BztA at 13; C-terminal NH2
notes: Stapled peptide; also called Ac-PL3-Asp-Ala-B5-Asp-His-Ala-Ala-Phe-Val-S8-3FF-BztA-Gln-NH2
B10: I-410 (peptide)
peptide: Ac-[αAllylPro]DV[B5(23)]DEAAFQ[S8]F[Bta]Q-NH2
modifications: staple 1-4, 4-11
notes: Stapled peptide; also called Ac-PL3-Asp-Val-B5-Asp-Glu-Ala-Ala-Phe-Gln-S8-Phe-BztA-Gln-NH2
B11: I-396 (peptide)
peptide: Ac-[αAllylPro]DA[B5(9)]DHAAFV[S8][Phe(3-F)][Bta]Q-NH2
modifications: staple 1-4, 4-11; also: earlier eluting HPLC isomer, E/Z not assigned
notes: as for B9
B12: I-390 (peptide)
peptide: Ac-[αAllylPro]DA[B5(9)]DEAA[23FF]V[S8]F[Bta]Q-NH2
modifications: staple 1-4, 4-11; not fully specified; printed as Ac-PL3-Asp-Ala-B5-Asp-Glu-Ala-Ala-23FF-Val-S8-Phe-BztA-Gln-NH2
notes: Stapled peptide; also called Ac-PL3-Asp-Ala-B5-Asp-Glu-Ala-Ala-23FF-Val-S8-Phe-BztA-Gln-NH2
B13: I-389 (peptide)
peptide: Ac-[αAllylPro]DA[B5(9)]DEAAFV[S8][23FF][Bta]Q-NH2
modifications: staple 1-4, 4-11; also: later eluting HPLC isomer, E/Z not assigned
notes: as for B2
B14: I-391 (peptide)
peptide: Ac-[αAllylPro]DA[B5(9)]DEAA[23FF]V[S8]F[Bta]Q-NH2
modifications: staple 1-4, 4-11; also: later eluting HPLC isomer, E/Z not assigned
notes: as for B12
B15: I-394 (peptide)
peptide: Ac-[αAllylPro]DA[B5(9)]DEAAFV[S8][Phe(3,5-F2)][Bta]Q-NH2
modifications: staple 1-4, 4-11
notes: Stapled peptide; also called Ac-PL3-Asp-Ala-B5-Asp-Glu-Ala-Ala-Phe-Val-S8-35FF-BztA-Gln-NH2

By EC50 is commonly meant the concentration needed to bring the measured effect to its halfway point. Low readings indicate an effect from little substance, high ones a need for much substance. As usually defined, the IC50 is the point on the concentration scale where inhibition reaches its midpoint. A lower IC50 goes with greater potency in that assay.

The first assay has as its target T1, full-length beta-Catenin (Uniprot ID P35222) (Homo sapiens (Human), UniProt P35222 2-781).
T1 construct: Also used here for the endogenous beta-catenin of the DLD1 TCF reporter cells; also called bCat; B-Catenin
T1 sequence: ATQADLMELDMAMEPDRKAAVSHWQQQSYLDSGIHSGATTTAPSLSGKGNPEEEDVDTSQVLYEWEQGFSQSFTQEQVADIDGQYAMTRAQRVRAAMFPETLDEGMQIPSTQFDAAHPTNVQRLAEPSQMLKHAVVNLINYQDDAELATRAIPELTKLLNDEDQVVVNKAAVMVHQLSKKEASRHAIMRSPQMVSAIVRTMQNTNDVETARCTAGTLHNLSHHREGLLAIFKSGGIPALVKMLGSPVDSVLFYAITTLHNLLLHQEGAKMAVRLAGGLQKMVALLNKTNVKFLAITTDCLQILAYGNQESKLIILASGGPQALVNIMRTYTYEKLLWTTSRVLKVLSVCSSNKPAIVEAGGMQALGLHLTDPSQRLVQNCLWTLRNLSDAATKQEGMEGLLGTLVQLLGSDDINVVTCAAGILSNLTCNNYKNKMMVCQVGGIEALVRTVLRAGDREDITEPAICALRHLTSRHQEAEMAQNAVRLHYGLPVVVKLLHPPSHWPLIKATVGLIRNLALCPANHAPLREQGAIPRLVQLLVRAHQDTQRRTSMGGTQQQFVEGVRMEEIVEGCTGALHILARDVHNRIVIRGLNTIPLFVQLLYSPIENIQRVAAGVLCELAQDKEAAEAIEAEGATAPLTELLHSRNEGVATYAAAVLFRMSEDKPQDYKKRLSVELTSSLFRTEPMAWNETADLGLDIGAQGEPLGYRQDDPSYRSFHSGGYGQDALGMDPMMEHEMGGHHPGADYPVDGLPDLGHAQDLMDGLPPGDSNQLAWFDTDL
Put plainly: fluorescence polarization competition; full-length beta-catenin, competitor 5FAM-TCF4(10-53) probe. Summed up:
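Data fitted to 1:1 binding model with hill slope from duplicate reads taken after 60 minutes at 20° C. in the dark.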
Background: Fluorescence polarisation rises when a labelled molecule tumbles more slowly, as on binding a larger partner.
Regarding B1, the EC50 was 608 nM.

Another assay has as its target T2, full-length beta-Catenin (Uniprot ID P35222) (Homo sapiens (Human), UniProt P35222 1-781).
T2 construct: The assay text says full-length beta-Catenin (Uniprot ID P35222); also called bCat; B-Catenin
T2 sequence: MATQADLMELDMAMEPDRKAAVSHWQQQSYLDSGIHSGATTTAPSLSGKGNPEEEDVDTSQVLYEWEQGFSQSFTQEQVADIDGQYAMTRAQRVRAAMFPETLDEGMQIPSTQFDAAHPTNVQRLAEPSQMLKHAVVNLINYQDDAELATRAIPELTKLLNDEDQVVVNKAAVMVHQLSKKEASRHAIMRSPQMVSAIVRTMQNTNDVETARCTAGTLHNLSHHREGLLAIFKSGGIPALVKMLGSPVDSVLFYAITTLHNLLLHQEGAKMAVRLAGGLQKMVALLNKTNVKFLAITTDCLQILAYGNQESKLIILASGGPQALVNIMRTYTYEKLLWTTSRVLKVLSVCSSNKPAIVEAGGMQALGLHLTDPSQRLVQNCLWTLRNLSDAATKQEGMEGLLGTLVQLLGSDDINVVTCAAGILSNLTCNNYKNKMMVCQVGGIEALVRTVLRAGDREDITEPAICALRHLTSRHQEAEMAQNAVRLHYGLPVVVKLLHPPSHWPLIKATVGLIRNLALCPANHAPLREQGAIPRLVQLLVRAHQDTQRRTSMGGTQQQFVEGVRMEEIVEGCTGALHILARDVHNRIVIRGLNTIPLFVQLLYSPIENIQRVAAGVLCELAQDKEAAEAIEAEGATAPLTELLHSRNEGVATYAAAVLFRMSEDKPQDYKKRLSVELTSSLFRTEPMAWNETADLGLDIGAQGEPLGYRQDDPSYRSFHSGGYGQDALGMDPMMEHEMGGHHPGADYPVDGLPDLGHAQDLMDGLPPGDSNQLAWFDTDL
Put plainly: fluorescence polarization competition; full-length beta-catenin with 5FAM-labeled TCF4 (residues 10-53) probe as competitor. The procedure:
The plate was incubated protected from light for 60 minutes at 20° C. prior to read. Reads were performed on a CLARIOstar plate reader (BMG Labtech) in duplicate, and data were fitted to a 1:1 binding model with hill slope using an in-house script. All provided concentrations are final concentrations.
Take B2: the concentration for half-maximal inhibition (IC50) was determined as 5000 nM. The same measure, in the same setting: as for B3, the figure is 94 nM; as for B4, 30 nM. On the same count and under the same terms, under B5 stands 2130 nM; under B6, 3590 nM. Molecule B7 registered an IC50 of 2160 nM.

With B8, the IC50 was 2500 nM. On the same count and under the same terms, under B9 stands 2230 nM; under B10, 50 nM; under B11, 3430 nM.

For B12, the IC50 was found to be 3420 nM. The IC50 values of the last two molecules are within 1.5-fold of each other.

Molecule B13 had an IC50 of 5000 nM. Still for that read-out and setting: under B14 stands 1910 nM; under B15, 5000 nM.
